The text below walks through data of patent publication US20150344570A1 (published 2015).

T1: FcγRIIb extracellular domain with C-terminal His tag (human, UniProt P31994 43-217)
T1 construct: extracellular domain; also called FcgRIIb; 2b; not shown: His tag attached to the C terminus
T1 sequence (looked up): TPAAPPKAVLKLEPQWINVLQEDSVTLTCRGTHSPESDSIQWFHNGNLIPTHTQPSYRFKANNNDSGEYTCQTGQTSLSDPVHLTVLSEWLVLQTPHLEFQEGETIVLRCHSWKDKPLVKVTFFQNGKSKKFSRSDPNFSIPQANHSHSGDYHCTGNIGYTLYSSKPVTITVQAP

B1: GpH7-A5/GpH7-B3 variant L328_06M/GpL16-k0 (He Ab) (antibody, human IgG1, kappa)
heavy 1: not shown
heavy 2: not shown
light: DIVMTQSPLSLPVTPGEPASISCQASESLVHSNRNTYLHWYLQKPGQSPQLLIYKVSNRFSGVPDRFSGSGSGTDFTLKISRVEAEDVGVYYCSQNTHVPPTFGQGTKVEIERTVAAPSVFIFPPSDEQLKSGTASVVCLLNNFYPREAKVQWKVDNALQSGNSQESVTEQDSKDSTYSLSSTLTLSKADYEKHKVYACEVTHQGLSSPVTKSFNRGEC
notes: Heterodimerized antibody with the alteration in one H chain only
B2: GpH7-A5/GpH7-B3 variant P331_06M/GpL16-k0 (He Ab) (antibody, human IgG1, kappa)
heavy 1: not shown
heavy 2: not shown
light: B1 light
notes: as for B1
B3: GpH7-A5/GpH7-B3 variant P331_10E/GpL16-k0 (He Ab) (antibody, human IgG1, kappa)
heavy 1: not shown
heavy 2: not shown
light: B1 light
notes: as for B1
B4: GpH7-A5/GpH7-B3 variant L328_18N/GpL16-k0 (He Ab) (antibody, human IgG1, kappa)
heavy 1: not shown
heavy 2: not shown
light: B1 light
notes: as for B1
B5: GpH7-A5/GpH7-B3 variant L328_14T/GpL16-k0 (He Ab) (antibody, human IgG1, kappa)
heavy 1: not shown
heavy 2: not shown
light: B1 light
notes: as for B1
B6: GpH7-A5/GpH7-B3 variant P331_14T/GpL16-k0 (He Ab) (antibody, human IgG1, kappa)
heavy 1: not shown
heavy 2: not shown
light: B1 light
notes: as for B1
B7: GpH7-A5/GpH7-B3 variant P331_11K/GpL16-k0 (He Ab) (antibody, human IgG1, kappa)
heavy 1: not shown
heavy 2: not shown
light: B1 light
notes: as for B1
B8: GpH7-A5/GpH7-B3 variant L328_20W/GpL16-k0 (He Ab) (antibody, human IgG1, kappa)
heavy 1: not shown
heavy 2: not shown
light: B1 light
notes: as for B1
B9: GpH7-A5/GpH7-B3 variant L328_16H/GpL16-k0 (He Ab) (antibody, human IgG1, kappa)
heavy 1: not shown
heavy 2: not shown
light: B1 light
notes: as for B1
B10: GpH7-A5/GpH7-B3 variant L328_07I/GpL16-k0 (He Ab) (antibody, human IgG1, kappa)
heavy 1: not shown
heavy 2: not shown
light: B1 light
notes: as for B1
B11: GpH7-A5/GpH7-B3 variant P331_07I/GpL16-k0 (He Ab) (antibody, human IgG1, kappa)
heavy 1: not shown
heavy 2: not shown
light: B1 light
notes: as for B1
B12: GpH7-A5/GpH7-B3 variant P331_16H/GpL16-k0 (He Ab) (antibody, human IgG1, kappa)
heavy 1: not shown
heavy 2: not shown
light: B1 light
notes: as for B1
B13: GpH7-A5/GpH7-B3 variant L328_13S/GpL16-k0 (He Ab) (antibody, human IgG1, kappa)
heavy 1: not shown
heavy 2: not shown
light: B1 light
notes: as for B1
B14: GpH7-A5/GpH7-B3 variant P329_20W/GpL16-k0 (He Ab) (antibody, human IgG1, kappa)
heavy 1: not shown
heavy 2: not shown
light: B1 light
notes: as for B1
B15: GpH7-A5/GpH7-B3 variant P331_20W/GpL16-k0 (He Ab) (antibody, human IgG1, kappa)
heavy 1: not shown
heavy 2: not shown
light: B1 light
notes: as for B1
B16: GpH7-A5/GpH7-B3 variant P331_04F/GpL16-k0 (He Ab) (antibody, human IgG1, kappa)
heavy 1: not shown
heavy 2: not shown
light: B1 light
notes: as for B1

The first experiment has as its target T1, FcγRIIb extracellular domain with …. As to the kind of experiment: SPR (Biacore), antibody captured on antigen peptide chip, FcγR as analyte; relative binding. The method, then:
(§1) The heterodimerized antibodies He Abs in which one of the H chains was introduced with an alteration were assayed for their binding activities to each activating FcγR and inhibitory FcγR according to the method described in Example 4. […] The activating FcγRs in FIGS. 26, 27, 28, and 29 are FcγRIa, FcγRIIa (R), FcγRIIa (H), and FcγRIIIa, respectively.
(§2) Analysis of interaction between objective antibody and the FcγR was carried out using Biacore T100 (GE Healthcare). HBS-EP+ (GE Healthcare) was used as the running buffer, and the measurement temperature was set to 25° C. Chips produced by immobilizing the antigen peptide by the amine coupling method to a Series S Sencor Chip CM5 (GE Healthcare), or alternatively, chips produced by allowing preliminarily biotinylated antigen peptides to interact with and immobilize onto a Series S Sensor Chip SA (certified) (GE Healthcare) were used. Antibodies of interest were captured onto an antigen peptide-immobilized chip, and allowed to interact to each FcγR diluted with running buffer. To regenerate and repeatedly use the chip, the antibodies captured on the chip were washed off by reacting 10 mM glycine-HCl, pH 1.5.
(In general: In SPR one partner is held on a chip, and binding of the other changes the refractive index at the surface.)
Take B1: the He/Con_2b is 142 % of GpH7-A5/GpH7-B3/GpL16-k0 (=100).

On to B2, for which the He/Con_2b is 102 % of GpH7-A5/GpH7-B3/GpL16-k0 (=100).

Turning to B3, the He/Con_2b was 116 % of GpH7-A5/GpH7-B3/GpL16-k0 (=100).

Turning to B4, the He/Con_2b was 80.8 % of GpH7-A5/GpH7-B3/GpL16-k0 (=100).

For the molecule B5, the He/Con_2b was 141 % of GpH7-A5/GpH7-B3/GpL16-k0 (=100).

Turning to B6, the He/Con_2b was 99.8 % of GpH7-A5/GpH7-B3/GpL16-k0 (=100).

In the case of B7, the He/Con_2b is 84.7 % of GpH7-A5/GpH7-B3/GpL16-k0 (=100).

As to B8, the He/Con_2b was 235 % of GpH7-A5/GpH7-B3/GpL16-k0 (=100).

On to B9, for which the He/Con_2b is 80.6 % of GpH7-A5/GpH7-B3/GpL16-k0 (=100).

In the case of B10, the He/Con_2b is 160 % of GpH7-A5/GpH7-B3/GpL16-k0 (=100).

Regarding B11, the He/Con_2b is 114 % of GpH7-A5/GpH7-B3/GpL16-k0 (=100).

As to B12, the He/Con_2b was 116 % of GpH7-A5/GpH7-B3/GpL16-k0 (=100).

Take B13: the He/Con_2b was 149 % of GpH7-A5/GpH7-B3/GpL16-k0 (=100).

For the molecule B14, the He/Con_2b was 45.1 % of GpH7-A5/GpH7-B3/GpL16-k0 (=100).

B15: the He/Con_2b is 111 % of GpH7-A5/GpH7-B3/GpL16-k0 (=100).

B16: the He/Con_2b is 110 % of GpH7-A5/GpH7-B3/GpL16-k0 (=100).

The target in a further experiment is T2, FcγRIIIa extracellular domain with C-terminal His tag (human, UniProt P08637 17-208).
T2 construct: extracellular domain; also called FcgRIIIa; 3a; not shown: His tag attached to the C terminus
T2 sequence (P08637 17-208): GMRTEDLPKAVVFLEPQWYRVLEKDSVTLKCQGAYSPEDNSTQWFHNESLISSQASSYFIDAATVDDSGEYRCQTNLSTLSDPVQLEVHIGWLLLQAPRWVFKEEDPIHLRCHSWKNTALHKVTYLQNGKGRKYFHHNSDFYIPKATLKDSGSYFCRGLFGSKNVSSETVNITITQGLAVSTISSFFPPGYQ
The experiment is described as above. Here is the method: as §1, §2
On to B1, for which the He/Con_3a was 78.6 % of GpH7-A5/GpH7-B3/GpL16-k0 (=100).

Consider B2, for which the He/Con_3a was 74.8 % of GpH7-A5/GpH7-B3/GpL16-k0 (=100).

On to B3, for which the He/Con_3a was 75.1 % of GpH7-A5/GpH7-B3/GpL16-k0 (=100).

As for B4, the He/Con_3a was 49.7 % of GpH7-A5/GpH7-B3/GpL16-k0 (=100).

With B5, the He/Con_3a was 75.3 % of GpH7-A5/GpH7-B3/GpL16-k0 (=100).

Regarding B6, the He/Con_3a was 74.1 % of GpH7-A5/GpH7-B3/GpL16-k0 (=100).

Turning to B7, the He/Con_3a was 67.5 % of GpH7-A5/GpH7-B3/GpL16-k0 (=100).

In the case of B8, the He/Con_3a is 37.4 % of GpH7-A5/GpH7-B3/GpL16-k0 (=100).

In the case of B9, the He/Con_3a is 54.3 % of GpH7-A5/GpH7-B3/GpL16-k0 (=100).

In the case of B10, the He/Con_3a was 84 % of GpH7-A5/GpH7-B3/GpL16-k0 (=100).

On to B11, for which the He/Con_3a is 66 % of GpH7-A5/GpH7-B3/GpL16-k0 (=100).

For the molecule B12, the He/Con_3a is 80.2 % of GpH7-A5/GpH7-B3/GpL16-k0 (=100).

As for B13, the He/Con_3a is 71.7 % of GpH7-A5/GpH7-B3/GpL16-k0 (=100).

Turning to B14, the He/Con_3a is 31.7 % of GpH7-A5/GpH7-B3/GpL16-k0 (=100).

Regarding B15, the He/Con_3a is 78.6 % of GpH7-A5/GpH7-B3/GpL16-k0 (=100).

On to B16, for which the He/Con_3a was 77.3 % of GpH7-A5/GpH7-B3/GpL16-k0 (=100).
